Our source for the fold increase in the mean fluorescence intensity in the FRET channel values is article PMC2788528.

The assay deals with CEACAM3 WT-HA-CyPet, tyrosine-phosphorylated (coexpressed with v-Src) (UniProt P40198). In words: FRET or BRET; flow cytometric FRET in intact cotransfected 293T cells (with or without v-Src); CyPet and YPet double-positive cells gated; FRET channel excitation 405 nm, emission 525/50 nm; LSR II. On the technique in general: In BRET a luciferase serves as donor, and the signal depends on an acceptor being close.
UniProt P40198, sequence (P40198 35-252): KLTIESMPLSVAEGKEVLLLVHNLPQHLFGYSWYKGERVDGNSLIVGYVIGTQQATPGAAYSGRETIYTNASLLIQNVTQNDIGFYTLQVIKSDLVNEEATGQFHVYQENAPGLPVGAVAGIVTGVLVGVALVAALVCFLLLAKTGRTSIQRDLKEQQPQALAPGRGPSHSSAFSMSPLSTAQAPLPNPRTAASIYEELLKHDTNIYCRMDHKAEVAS

“YPet-Hck-SH2 (SH2 domain of human Hck fused to YPet) (from UniProt P08631 144-241) (domain or fragment)” had a fold increase in the mean fluorescence intensity in the FRET channel of 4 fold.
